In patent US20170342155A1 (Amgen, published 2017):

T1: human CCR7 variant D35E (20100122625) (human, UniProt P32248 25-378)
T1 construct: Human CCR7 with the murine residue at position 35; also called D35 variant
T1 sequence: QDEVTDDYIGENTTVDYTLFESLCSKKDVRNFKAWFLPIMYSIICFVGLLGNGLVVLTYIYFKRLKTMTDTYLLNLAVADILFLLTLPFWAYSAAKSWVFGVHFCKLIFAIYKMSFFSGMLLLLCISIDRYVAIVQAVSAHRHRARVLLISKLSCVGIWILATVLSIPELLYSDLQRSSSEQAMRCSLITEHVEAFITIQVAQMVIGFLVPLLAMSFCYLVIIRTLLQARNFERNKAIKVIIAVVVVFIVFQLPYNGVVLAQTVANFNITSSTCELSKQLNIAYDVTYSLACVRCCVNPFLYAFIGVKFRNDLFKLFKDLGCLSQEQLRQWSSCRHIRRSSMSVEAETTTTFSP

T2: human CCR7 variant L47V (20100122626) (human, UniProt P32248 25-378)
T2 sequence: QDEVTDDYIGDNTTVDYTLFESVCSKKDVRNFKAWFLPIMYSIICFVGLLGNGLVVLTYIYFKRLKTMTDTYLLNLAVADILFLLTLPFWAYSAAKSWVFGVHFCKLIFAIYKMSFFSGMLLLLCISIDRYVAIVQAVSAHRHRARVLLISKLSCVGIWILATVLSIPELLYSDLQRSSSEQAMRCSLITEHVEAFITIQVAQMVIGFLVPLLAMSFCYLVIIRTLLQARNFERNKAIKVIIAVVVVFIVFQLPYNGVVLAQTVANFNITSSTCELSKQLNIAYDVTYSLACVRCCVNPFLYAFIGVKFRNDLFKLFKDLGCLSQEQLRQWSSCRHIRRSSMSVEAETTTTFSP

T3: human CCR7 variant V123I (20100126473) (human, UniProt P32248 25-378)
T3 sequence: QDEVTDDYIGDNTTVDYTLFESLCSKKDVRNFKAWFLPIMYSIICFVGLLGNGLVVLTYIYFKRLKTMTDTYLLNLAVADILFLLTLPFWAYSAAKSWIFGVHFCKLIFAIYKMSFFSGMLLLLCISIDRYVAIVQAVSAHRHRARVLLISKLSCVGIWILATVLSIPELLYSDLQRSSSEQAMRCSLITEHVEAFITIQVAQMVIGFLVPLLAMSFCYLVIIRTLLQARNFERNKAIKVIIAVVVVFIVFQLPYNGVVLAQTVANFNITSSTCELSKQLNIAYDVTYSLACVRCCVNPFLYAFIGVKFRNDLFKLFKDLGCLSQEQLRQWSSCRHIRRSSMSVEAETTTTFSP

T4: human CCR7 variant S202N (20110009483) (human, UniProt P32248 25-378)
T4 sequence: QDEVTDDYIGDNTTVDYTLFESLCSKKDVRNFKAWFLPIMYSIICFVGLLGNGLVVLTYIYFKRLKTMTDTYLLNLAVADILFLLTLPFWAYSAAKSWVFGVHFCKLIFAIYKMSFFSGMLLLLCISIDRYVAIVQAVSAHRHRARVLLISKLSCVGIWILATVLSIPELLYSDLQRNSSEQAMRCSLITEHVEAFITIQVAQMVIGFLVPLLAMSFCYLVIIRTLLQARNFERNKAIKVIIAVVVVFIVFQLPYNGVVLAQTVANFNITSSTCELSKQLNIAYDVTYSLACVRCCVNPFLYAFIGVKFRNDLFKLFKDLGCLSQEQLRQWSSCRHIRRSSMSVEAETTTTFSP

T5: human CCR7 variant L300T (20110018204) (human, UniProt P32248 25-378)
T5 sequence: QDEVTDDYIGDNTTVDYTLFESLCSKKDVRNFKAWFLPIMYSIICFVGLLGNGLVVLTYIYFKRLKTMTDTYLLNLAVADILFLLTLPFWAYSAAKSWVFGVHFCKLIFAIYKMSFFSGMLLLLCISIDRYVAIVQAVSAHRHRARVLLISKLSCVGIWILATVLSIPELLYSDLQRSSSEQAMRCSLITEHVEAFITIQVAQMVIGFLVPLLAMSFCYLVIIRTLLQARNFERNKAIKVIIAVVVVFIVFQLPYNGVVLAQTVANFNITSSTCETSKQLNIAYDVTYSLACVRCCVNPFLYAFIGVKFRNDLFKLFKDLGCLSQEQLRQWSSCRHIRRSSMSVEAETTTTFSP

T6: murine CCR7 K201R/N202S/G204S/T207A/L208M construct 20110094673 (mouse, UniProt P47774 25-378)
T6 construct: Murine CCR7 with five human ECL2 residues; also called KNGTL; KNGTL construct
T6 chain: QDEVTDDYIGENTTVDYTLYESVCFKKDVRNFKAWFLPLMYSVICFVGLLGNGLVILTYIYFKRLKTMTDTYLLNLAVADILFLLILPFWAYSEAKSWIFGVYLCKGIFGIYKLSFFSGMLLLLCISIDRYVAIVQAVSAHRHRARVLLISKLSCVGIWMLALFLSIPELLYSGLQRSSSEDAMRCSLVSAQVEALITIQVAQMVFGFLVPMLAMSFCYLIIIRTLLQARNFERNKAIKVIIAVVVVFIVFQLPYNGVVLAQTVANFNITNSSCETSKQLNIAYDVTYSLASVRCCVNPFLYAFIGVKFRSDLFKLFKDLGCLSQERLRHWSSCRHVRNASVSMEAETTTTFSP


Assays:
Experiment in all cases: flow cytometry on transfected 293T cells, PE secondary antibody, geo mean
[1] = biological target: T1, human CCR7 variant D35E (20100122625)
[2] = biological target: T2, human CCR7 variant L47V (20100122626)
[3] = biological target: T3, human CCR7 variant V123I (20100126473)
[4] = biological target: T4, human CCR7 variant S202N (20110009483)
[5] = biological target: T5, human CCR7 variant L300T (20110018204)
[6] = biological target: T6, murine CCR7 …

binding result [1]	binding result [2]	binding result [3]	binding result [4]	binding result [5]	binding result [6]	Binder
binds	binds	binds	binds	binds	binds	antibody 6B4.1 (antibody, V domains shown, Human antibody from XenoMouse hybridoma; Light = 2 and heavy = 42 is inferred from the order of the listing (light chains first)) VH: QVQLVESGGGVVQPGRSLRLSCAASGFTFSSYGMHWVRQAPGKGLEWVAVIWYDGSKKYYADSVKGRFTISRDNSKNTLYLQMNRLRAEDTAVYYCARDGGIAVFLQDNWFDPWGQGTLVTVSS VL: SYELTQPPSVSVSPGQRARITCSGDKLGDKYASWYQQKPGQSPLLVIYQDSKRPSGIPERFSGSNSGNTATLTISGTQAMDEADYYCQAWGSSTVIFGGGTKLTVLG
binds	binds	binds	binds	binds	binds	antibody 6B5.1 (antibody, human IgG2, lambda, V domains shown, Human antibody from XenoMouse hybridoma; Light = 18 and heavy = 50 is inferred from the order of the listing) VH: QVQLVESGGGVVQPGRSLRLSCAASGFTFRSYGMHWVRQAPGKGLEWVAVIWYDGSKKYYADSVKGRFTISRDNSKNTLYLQMNRLRAEDTAVYYCARDGGIAVFLEDNWFDPWGQGTLVTVSS VL: SYELTQPPSVSVSPGQRASITCSGDKLGDKYASWYQQKPGQSPLLVIYQDGKRPSGIPERFSGSNSGNTATLTISGTQAMDEADYYCQAWGSSTVIFGGGTKLTVLG
